From patent US20250250357A1 (NANJING ZAIMING PHARMACEUTICAL, published 2025)

T1: monkey MSLN full-length protein (NCBI: XP_028696439.1) expressed on HEK293T-monkey MSLN cells (monkey)
T1 construct: Whole encoded precursor
T1 chain: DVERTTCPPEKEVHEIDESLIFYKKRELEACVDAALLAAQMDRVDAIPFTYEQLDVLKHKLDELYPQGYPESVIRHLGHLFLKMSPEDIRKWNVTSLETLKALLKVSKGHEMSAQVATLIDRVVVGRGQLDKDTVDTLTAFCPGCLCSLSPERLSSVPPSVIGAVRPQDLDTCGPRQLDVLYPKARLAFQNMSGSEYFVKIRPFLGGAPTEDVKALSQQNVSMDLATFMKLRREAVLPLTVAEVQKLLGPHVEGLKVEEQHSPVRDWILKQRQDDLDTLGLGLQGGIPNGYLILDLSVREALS

B1: S009-F3.45.21 (antibody, human IgG1, kappa, V domains shown)
VH: DVQLQESGPGLVKPSQSLSLTCSVTGDSITSGYYWNWIRQFPGNKLEWMGFIRFDGTNNYNPSLKNRISITRDTSKNQFFLKLNSVTTEDTATYYCAREGSYAPAWFAYWGQGTLVTVSA
VL: QIVLTQSPAIMSASPGEKVTMTCSASSSLSYMYWYQQKPGSSPRLLIYDTSNLASGVPVRFSGSGSGTSYSLTISRMEAEDAATYYCQQWSSYPPTFGGGTKLEIKR
notes: Human-murine chimeric antibody, human IgG1/kappa constant regions
B2: S009-F3.23.1 (antibody, human IgG1, kappa, V domains shown)
VH: QVQLQQSGADLVRPGASVTLSCKASGYTFTDYEMHWVKQTPVHGLEWIGAIDPETGDTVYNQNFKGKAILTADKSSSTAYMELRSLTSEDSAVYYCTRYGYDWGWGQGTTLTVSS
VL: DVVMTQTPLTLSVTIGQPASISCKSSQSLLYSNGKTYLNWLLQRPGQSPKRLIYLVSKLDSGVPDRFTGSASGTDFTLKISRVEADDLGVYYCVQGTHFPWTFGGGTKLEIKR
notes: as for B1
B3: S009-F3.51.8 (antibody, human IgG1, kappa, V domains shown)
VH: QVQLQQSGAELVRPGASVTLSCKASGYTFTDYEMHWVKQTPVHGLEWIGGFDPETGGTAHNQKFKGKAILTADKSSSTAYMELRSLTSEDSAVYYCSNYGSIWGDCWGQGTSVTVSS
VL: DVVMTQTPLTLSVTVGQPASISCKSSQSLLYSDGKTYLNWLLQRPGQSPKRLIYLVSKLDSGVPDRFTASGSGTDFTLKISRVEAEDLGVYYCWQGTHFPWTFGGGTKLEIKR
notes: as for B1
B4: S009-F5-9.16 (antibody, human IgG1, kappa, V domains shown)
VH: EVQLRQSGPVLVKPGASVKMSCKASGYTFTDYFMNWVKPSHGKSLEWIGVINPSNGVINYNQRFKGKATLTVDKSSSTAYMELNSLTSEDSAVYYCARSYDFAWFAYWGQGTLVTVSA
VL: DVLMTQTPLSLPVSLGDQASISCRSSQNIVHSNGNTYLEWYLQKPGQSPKLLIYTVSNRFSGVPDRFSGSGSGTDFTLKISRVEAEDLGVYYCFQGSHVPYTFGGGTKLEIKR
notes: human-murine chimeric antibody, human IgG1/kappa constant regions
B5: S009-F6-76.1 (antibody, human IgG1, kappa, V domains shown)
VH: QVQLQQSGPELVKPGASVKISCKASGYTFTDYYINWVKQRPGQGLEWIGWIFPGRGSTFYYEKFKGKATLTVDKSSSTAYMLLSSLTSEDSAVYFCARRGDSAGYEDLDYWGQGTSVTVSS
VL: NIVMTQSPKFMSMSVGERVTLSCKASENVVTYVSWYQQKPKQSPKLLIYGASKRYTGVPDRFTGSGSATDFTLTISSVQAEDLGDYHCGQSYSYPYTFGGGTKLEIKR
notes: as for B4
B6: S009-F4-94.15 (antibody, human IgG1, kappa, V domains shown)
VH: QVQLHQPGAELVRPGSSVKLSCKASGYTFTSYWVHWVQQRPRQGLEWIGNIDPSDSEIHYNQKFKDKATLTVDKSSSTAYIHLSRLTSEDSAIYYCVRGGVPWFAYWGQGTLVTVSA
VL: QIVLTQSPAIMSASPGEKVTLTCSASSSVSSTYLYWFQQKPGSSPKVWIYSTSNLASGVPARFSGSGSGTSYSLTISSMEAEDAASYFCHQWISYPYTFGGGTKLEIKR
notes: as for B4
B7: S009-F4-127.10 (antibody, human IgG1, kappa, V domains shown)
VH: EVQLQQSGPVLVKPGASVKMSCKASGYTFTDYYMNWVKQSHGKSPEWIGVINPYNDVISYNQKFKGKATLTVDKSSSTAYMELNSLTSEDSAVYYCANYGSSYYAMDYWGQGTSVTVSS
VL: DVVMTQTPLSLSVSLGDQASISCRSSQSLVHSNGNTYLQWSLQKPGQSPNLLIYKVSNRFSGVPDRFSGSGSGTDFTLKISRVEAEDLGVYFCSQTTHVPFTFGGGTKLEIRR
notes: as for B4
B8: S009-F6-62.5 (antibody, human IgG1, kappa, V domains shown)
VH: QVQLQQPGTELVKPGASVKLSCRASGYTFTAYWMHWVKQRPGQGLEWIGNINPSNGGTDFNEKFKSKATLTVDKSSSTAYMQLSSLTSEDSAVYYCARGRGYFDVWGTGTTVTVSS
VL: DILLTQSPAILSVSPGERVSFSCRASKNIGTSIHWYQQRTNGSPRLLIKYASESISGIPSRFSGSGSGTDFTLNINSVESEDIADYYCQQSNSWPTLTFGAGTKLELKR
notes: as for B4

target: T2, human MSLN-R3-3 polypeptide (human); assay: ELISA, coated antigen; antibody 0.01 nM
T2 construct: also called human MSLN-R3-3 protein; hMSLN-R3-3
Experimental: (§1) The plate was sealed with a plastic film and incubated at 4° C. overnight. The next day, the plate was washed twice with PBST, and a blocking buffer [PBS+2% (w/w) BSA] was added for blocking at room temperature for 2 h. The blocking buffer was discarded, and a chimeric antibody or negative control antibody serially diluted from 100 nM was added at 50 μL/well. After incubation at 37° C. for 2 h, the plate was washed 3 times with PBST. […] After incubation at 37° C. for 2 h, the plate was washed 5 times with PBST. A TMB substrate was added at 50 μL/well for incubation at room temperature for 5-10 min, and then a stop solution (1.0 N HCl) was added at 50 μL/well.

| OD450 | Binder |
| --- | --- |
| 0.07 OD450 | B1 |
| 0.57 OD450 | B2 |
| 0.51 OD450 | B3 |

target: T3, human MSLN-R3-his protein (human, UniProt Q13421 487-598); assay: ELISA, coated antigen; antibody 1 nM
T3 construct: also called human MSLN-R3 protein; hMSLN-R3-his; not shown: His tag
T3 sequence (Q13421 495-606): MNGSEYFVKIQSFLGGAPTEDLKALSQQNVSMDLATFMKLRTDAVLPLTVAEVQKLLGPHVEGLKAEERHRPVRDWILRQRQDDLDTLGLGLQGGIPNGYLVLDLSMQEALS

| OD450 | Binder |
| --- | --- |
| 0.05 OD450 | B1 |
| 1.77 OD450 | B2 |
| 1.83 OD450 | B3 |

target: T2, human MSLN-R3-3 polypeptide; assay: ELISA, coated antigen; antibody 100 nM
Experimental: as §1

| OD450 | Binder |
| --- | --- |
| 0.11 OD450 | B1 |
| 2.33 OD450 | B2 |
| 2.04 OD450 | B3 |

target: T2, human MSLN-R3-3 polypeptide; assay: ELISA, coated antigen; antibody 0.0001 nM
Experimental: as §1

| OD450 | Binder |
| --- | --- |
| 0.1 OD450 | B1 |
| 0.09 OD450 | B2 |
| 0.09 OD450 | B3 |

target: T3, human MSLN-R3-his protein; assay: ELISA, coated antigen; antibody 10 nM
Experimental: as §1

| OD450 | Binder |
| --- | --- |
| 0.07 OD450 | B1 |
| 1.95 OD450 | B2 |
| 1.91 OD450 | B3 |

target: T2, human MSLN-R3-3 polypeptide; assay: ELISA, coated antigen; antibody 0.001 nM
Experimental: as §1

| OD450 | Binder |
| --- | --- |
| 0.25 OD450 | B1 |
| 0.18 OD450 | B2 |
| 0.13 OD450 | B3 |

target: T3, human MSLN-R3-his protein; assay: ELISA, coated antigen; antibody 0.1 nM
Experimental: as §1

| OD450 | Binder |
| --- | --- |
| 0.06 OD450 | B1 |
| 1.51 OD450 | B2 |
| 1.55 OD450 | B3 |

target: T2, human MSLN-R3-3 polypeptide; assay: ELISA, coated antigen; antibody 1 nM
Experimental: as §1

| OD450 | Binder |
| --- | --- |
| 0.07 OD450 | B1 |
| 1.87 OD450 | B2 |
| 1.8 OD450 | B3 |

target: T3, human MSLN-R3-his protein; assay: ELISA, coated antigen; antibody 0.0001 nM
Experimental: as §1

| OD450 | Binder |
| --- | --- |
| 0.09 OD450 | B1 |
| 0.08 OD450 | B2 |
| 0.09 OD450 | B3 |

target: T2, human MSLN-R3-3 polypeptide; assay: ELISA, coated antigen; no antibody (blank, column 'none')
Experimental: as §1

| OD450 | Binder |
| --- | --- |
| 0.07 OD450 | B1 |
| 0.09 OD450 | B2 |
| 0.07 OD450 | B3 |

target: T2, human MSLN-R3-3 polypeptide; assay: ELISA, coated antigen; antibody 10 nM
Experimental: as §1

| OD450 | Binder |
| --- | --- |
| 0.08 OD450 | B1 |
| 2.01 OD450 | B2 |
| 1.92 OD450 | B3 |

target: T4, human MSLN protein endogenously expressed on OVCAR3 tumor cells (human, UniProt Q13421 296-598); assay: FACS on OVCAR3 cells
T4 construct: whole, on cells; Endogenous target on OVCAR3 cells; kept apart from the recombinant full-length construct; also called mesothelin
T4 sequence (Q13421 other isoform, or with tags, fused parts or gaps): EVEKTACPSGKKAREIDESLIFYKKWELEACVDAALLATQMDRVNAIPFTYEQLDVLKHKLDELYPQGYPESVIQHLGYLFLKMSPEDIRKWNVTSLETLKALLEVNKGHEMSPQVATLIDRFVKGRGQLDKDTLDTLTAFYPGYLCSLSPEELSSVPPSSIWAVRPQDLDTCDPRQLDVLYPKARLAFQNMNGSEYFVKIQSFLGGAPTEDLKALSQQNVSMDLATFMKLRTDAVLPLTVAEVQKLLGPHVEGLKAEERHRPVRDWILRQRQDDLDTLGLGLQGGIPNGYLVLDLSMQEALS
Experimental: (§2) The desired cells were expanded to the logarithmic growth phase in a T-75 cell culture flask. […] After the cells from the previous step were subjected to cell counting, the cell pellet was resuspended to 2×10⁶ cells/mL in a blocking buffer of [PBS+2% (w/w) BSA] and added into a 96-well FACS reaction plate at 50 μL/well. A chimeric antibody (a sample to be tested) was added at 50 μL/well, and the plate was incubated on ice for 2 h. […] After the plate was centrifuged and washed 5 times with a PBST buffer, assay and analysis were performed by FACS (FACS CantoII, purchased from BD). Data analysis was performed by software (Flowjo) to obtain the mean fluorescence intensity (MFI) of the cells.

| EC50 | Maximum mean fluorescence intensity | Binder |
| --- | --- | --- |
| 0.82 nM | 3510 | B4 |
| 4.13 nM | 6810 | B5 |
| 0.65 nM | 7060 | B6 |
|  | 3360 | B7 |
| 0.31 nM | 2600 | B8 |

target: T2, human MSLN-R3-3 polypeptide; assay: ELISA, coated antigen; antibody 0.1 nM
Experimental: as §1

| OD450 | Binder |
| --- | --- |
| 0.08 OD450 | B1 |
| 1.54 OD450 | B2 |
| 1.42 OD450 | B3 |

target: T5, human MSLN full-length protein (NCBI: AAH09272.1) expressed on HEK293T-hMSLN-B8 cells (human, UniProt Q13421 296-598); assay: FACS on HEK293T-hMSLN-B8 cells
T5 construct: Whole encoded precursor
T5 sequence (Q13421 other isoform, or with tags, fused parts or gaps limits assumed): as the sequence (Q13421 other isoform, or with tags, fused parts or gaps) above, with R14P counted along it
Experimental: as §2

| EC50 | Maximum mean fluorescence intensity | Binder |
| --- | --- | --- |
| 0.76 nM | 240000 | B4 |
| 1.39 nM | 231000 | B5 |
| 3.06 nM | 113000 | B6 |
| 6.07 nM | 102000 | B7 |
| 0.41 nM | 202000 | B8 |

target: T3, human MSLN-R3-his protein; assay: ELISA, coated antigen; antibody 0.01 nM
Experimental: as §1

| OD450 | Binder |
| --- | --- |
| 0.07 OD450 | B1 |
| 0.48 OD450 | B2 |
| 0.41 OD450 | B3 |

target: T3, human MSLN-R3-his protein; assay: ELISA, coated antigen; antibody 100 nM
Experimental: as §1

| OD450 | Binder |
| --- | --- |
| 0.09 OD450 | B1 |
| 2.31 OD450 | B2 |
| 2.18 OD450 | B3 |

Target: T1, monkey MSLN full-length protein (NCBI: …)
Assay: FACS on HEK293T-monkey MSLN cells
Experimental: as §2

| Maximum mean fluorescence intensity | binding result | EC50 | Binder |
| --- | --- | --- | --- |
| 365 | no binding |  | B4 |
| 131 | no binding |  | B5 |
| 29900 |  | 0.37 nM | B6 |
| 41100 |  | 3.42 nM | B7 |
| 202 | no binding |  | B8 |

target: T6, human MSLN-R3 protein (Met487-Ser606 of NCBI AAH09272.1) expressed on HEK293T-hMSLN-R3 cells (human, UniProt Q13421 487-606); assay: FACS on HEK293T-hMSLN-R3 cells
T6 construct: also called Region3
T6 sequence (Q13421 495-614): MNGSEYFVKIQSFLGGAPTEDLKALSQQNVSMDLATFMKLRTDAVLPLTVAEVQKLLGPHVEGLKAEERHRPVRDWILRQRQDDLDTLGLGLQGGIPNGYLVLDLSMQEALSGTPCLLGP
Experimental: as §2

| EC50 | Maximum mean fluorescence intensity | binding result | Binder |
| --- | --- | --- | --- |
| 0.35 nM | 63900 |  | B4 |
|  | 135 | no binding | B5 |
|  | 84 | no binding | B6 |
| 1.97 nM | 14200 |  | B7 |
|  | 186 | no binding | B8 |

target: T3, human MSLN-R3-his protein; assay: ELISA, coated antigen; no antibody (blank, column 'none')
Experimental: as §1

| OD450 | Binder |
| --- | --- |
| 0.09 OD450 | B1 |
| 0.1 OD450 | B2 |
| 0.09 OD450 | B3 |

target: T3, human MSLN-R3-his protein; assay: ELISA, coated antigen; antibody 0.001 nM
Experimental: as §1

| OD450 | Binder |
| --- | --- |
| 0.24 OD450 | B1 |
| 0.12 OD450 | B2 |
| 0.12 OD450 | B3 |
